In patent US20250161474A1 (SICHUAN KELUN BIOTECH BIOPHARMACEUTICAL, published 2025):

B1: ADC 10B-A-05 (bispecific antibody, human IgG1, kappa)
light: not shown
heavy: not shown
chain: DIQMTQSPSSLSASVGDRVTITCKSSQSLLYTSSQKNYLAWYQQKPGKAPKLLIYWASTRESGVPSRFSGSGSGTDFTLTISSLQPEDFATYYCQQYYAYPWTFGQGTKVEIKGGGGSGGGGSGGGGSEVQLVESGGGLVQPGGSLRLSCAASGYTFTSYWLHWVRQAPGKGLEWVGMIDPSNSDTRFNPNFKDRFTISADTSKNTAYLQMNSLRAEDTAVYYCATYRSYVTPLDYWGQGTLVTVSSGGGGDKTHTCPPCPAPELLGGPSVFLFPPKPKDTLMISRTPEVTCVVVDVSHEDPEVKFNWYVDGVEVHNAKTKPREEQYNSTYRVVSVLTVLHQDWLNGKEYKCKVSNKALPAPIEKTISKAKGQPREPQVCTLPPSREEMTKNQVSLSCAVKGFYPSDIAVEWESNGQPENNYKTTPPVLDSDGSFFLVSKLTVDKSRWQQGNVFSCSVMHEALHNHYTQKSLSLSPGK
modifications: linker-payload A-05 on reduced Cys sulfhydryls (sites not given); DAR of the whole ADC approximately 6
B2: ADC 49B-A-05 (bispecific antibody, human IgG1, kappa, L234A L235A)
light: DIQMTQSPSSLSASVGDRVTITCKSSQSLLYTSSQKNYLAWYQQKPGKAPKLLIYWASTRESGVPSRFSGSGSGTDFTLTISSLQPEDFATYYCQQYYAYPWTFGQGTKVEIKRTVAAPSVFIFPPSDEQLKSGTASVVCLLNNFYPREAKVQWKVDNALQSGNSQESVTEQDSKDSTYSLSSTLTLSKADYEKHKVYACEVTHQGLSSPVTKSFNRGEC
heavy: not shown
chain: AIQLTQSPSSLSASVGDRVTITCRASQDISSALVWYQQKPGKAPKLLIYDASSLESGVPSRFSGSESGTDFTLTISSLQPEDFATYYCQQFNSYPLTFGGGTKVEIKGGGGSGGGGSGGGGSQVQLVESGGGVVQPGRSLRLSCAASGFTFSTYGMHWVRQAPGKGLEWVAVIWDDGSYKYYGDSVKGRFTISRDNSKNTLYLQMNSLRAEDTAVYYCARDGITMVRGVMKDYFDYWGQGTLVTVSSGGGGDKTHTCPPCPAPEAAGGPSVFLFPPKPKDTLMISRTPEVTCVVVDVSHEDPEVKFNWYVDGVEVHNAKTKPREEQYNSTYRVVSVLTVLHQDWLNGKEYKCKVSNKALAAPIEKTISKAKGQPREPQVCTLPPSRDELTKNQVSLSCAVKGFYPSDIAVEWESNGQPENNYKTTPPVLDSDGSFFLVSKLTVDKSRWQQGNVFSCSVMHEALHNHYTQKSLSLSPGK
modifications: linker-payload A-05 on reduced Cys sulfhydryls (sites not given); DAR of the whole ADC approximately 6
B3: ADC 49B-B-01 (bispecific antibody, human IgG1, kappa, L234A L235A)
light: B2 light
heavy: not shown
chain: B2 chain
modifications: linker-payload B-01 on reduced Cys sulfhydryls (sites not given); DAR of the whole ADC approximately 6
B4: ADC 49B-A-14 (bispecific antibody, human IgG1, kappa, L234A L235A)
light: B2 light
heavy: not shown
chain: B2 chain
modifications: linker-payload A-14 on reduced Cys sulfhydryls (sites not given); DAR of the whole ADC approximately 6
B5: ADC 41B-A-05 (bispecific antibody, human IgG1, kappa, L234A L235A)
light: not shown
heavy: not shown
chain: DIQMTQSPSSLSASVGDRVTITCKSSQSLLYTSSQKNYLAWYQQKPGKAPKLLIYWASTRESGVPSRFSGSGSGTDFTLTISSLQPEDFATYYCQQYYAYPWTFGCGTKVEIKRTVAAPSVFIFPPSDEQLKSGTASVVCLLNNFYPREAKVQWKVDNALQSGNSQESVTEQDSKDSTYSLSSTLTLSKADYEKHKVYACEVTHQGLSSPVTKSFNRGECGGGGSGGGGSGGGGSGGGGSGGGGSGGGGSGGGGSGGGGSEVQLVESGGGLVQPGGSLRLSCAASGYTFTSYWLHWVRQAPGKCLEWVGMIDPSNSDTRFNPNFKDRFTISADTSKNTAYLQMNSLRAEDTAVYYCATYRSYVTPLDYWGQGTLVTVSSASTKGPSVFPLAPSSKSTSGGTAALGCLVKDYFPEPVTVSWNSGALTSGVHTFPAVLQSSGLYSLSSVVTVPSSSLGTQTYICNVNHKPSNTKVDKKVEPKSCDKTHTCPPCPAPEAAGGPSVFLFPPKPKDTLMISRTPEVTCVVVDVSHEDPEVKFNWYVDGVEVHNAKTKPREEQYNSTYRVVSVLTVLHQDWLNGKEYKCKVSNKALAAPIEKTISKAKGQPREPQVCTLPPSRDELTKNQVSLSCAVKGFYPSDIAVEWESNGQPENNYKTTPPVLDSDGSFFLVSKLTVDKSRWQQGNVFSCSVMHEALHNHYTQKSLSLSPGK
modifications: linker-payload A-05 on reduced Cys sulfhydryls (sites not given); DAR of the whole ADC approximately 8
B6: BsAb 41B (bispecific antibody, human IgG1, kappa, L234A L235A)
light: not shown
heavy: not shown
chain: B5 chain
notes: Fab-scFab-Fc (KIH) format; anti-EGFR Fab, anti-c-MET scFab; also called bispecific antibody 41B

Target: T1, human c-MET (human, UniProt P08581 25-1390)
T1 construct: whole, on cells; also called tyrosine protein kinase Met; hepatocyte growth factor receptor
Assay: flow cytometry on EBC-1 cells (highly express c-MET)
Description: (§1) A flow cytometer (Beckman, model Cytoflex) was used to detect the interaction between anti-human EGFR/c-MET bispecific antibodies and their conjugates and human gastric cancer cells MKN45 (Nanjing Cobioer Biosciences) and human gastric cancer cells overexpressing human EGFR MKN45-EGFR (Kelun-Biotech), human lung squamous cell carcinoma EBC-1 (Nanjing Cobioer Biosciences), human lung squamous cell carcinoma EBC-1-EGFR overexpressing human EGFR (Kelun-Biotech), human non-small cell lung cancer cell HCC827 (ATCC™), and human epidermal squamous cell carcinoma cell A431 (Nanjing Cobioer Biosciences). The protocol was as follows.
(§2) The adherent cells were digested with Trypsin-EDTA solution (0.25%) (Shanghai BasalMedia) and the cell density adjusted to 4.0×10⁶ per mL. The cells were washed twice with 1% BSA and resuspended in 1% BSA solution. Then 50 μL cell suspension was added to each well of a 96-well plate (the number of cells was 2×10⁵ per well). The antibody and its conjugate were diluted with 1% BSA (final concentration 10 µg/mL, 3-fold gradient dilution, a total of 11 concentration points). Then 50 μL of the diluted antibody and ADC were added to the wells of the 96-well plate and the plate was incubated at 4° C. for 60 minutes. The wells of the 96-well plate were then washed twice with 1% BSA, 50 μL of diluted secondary antibody was added to each well, and the 96-well plate was incubated at 4° C. for 30 minutes. Then the cells were washed twice with 1% BSA, and the cells were resuspended in 200 μL of 1% BSA and subjected to flow cytometry detection.

T1 sequence (P08581 25-1390): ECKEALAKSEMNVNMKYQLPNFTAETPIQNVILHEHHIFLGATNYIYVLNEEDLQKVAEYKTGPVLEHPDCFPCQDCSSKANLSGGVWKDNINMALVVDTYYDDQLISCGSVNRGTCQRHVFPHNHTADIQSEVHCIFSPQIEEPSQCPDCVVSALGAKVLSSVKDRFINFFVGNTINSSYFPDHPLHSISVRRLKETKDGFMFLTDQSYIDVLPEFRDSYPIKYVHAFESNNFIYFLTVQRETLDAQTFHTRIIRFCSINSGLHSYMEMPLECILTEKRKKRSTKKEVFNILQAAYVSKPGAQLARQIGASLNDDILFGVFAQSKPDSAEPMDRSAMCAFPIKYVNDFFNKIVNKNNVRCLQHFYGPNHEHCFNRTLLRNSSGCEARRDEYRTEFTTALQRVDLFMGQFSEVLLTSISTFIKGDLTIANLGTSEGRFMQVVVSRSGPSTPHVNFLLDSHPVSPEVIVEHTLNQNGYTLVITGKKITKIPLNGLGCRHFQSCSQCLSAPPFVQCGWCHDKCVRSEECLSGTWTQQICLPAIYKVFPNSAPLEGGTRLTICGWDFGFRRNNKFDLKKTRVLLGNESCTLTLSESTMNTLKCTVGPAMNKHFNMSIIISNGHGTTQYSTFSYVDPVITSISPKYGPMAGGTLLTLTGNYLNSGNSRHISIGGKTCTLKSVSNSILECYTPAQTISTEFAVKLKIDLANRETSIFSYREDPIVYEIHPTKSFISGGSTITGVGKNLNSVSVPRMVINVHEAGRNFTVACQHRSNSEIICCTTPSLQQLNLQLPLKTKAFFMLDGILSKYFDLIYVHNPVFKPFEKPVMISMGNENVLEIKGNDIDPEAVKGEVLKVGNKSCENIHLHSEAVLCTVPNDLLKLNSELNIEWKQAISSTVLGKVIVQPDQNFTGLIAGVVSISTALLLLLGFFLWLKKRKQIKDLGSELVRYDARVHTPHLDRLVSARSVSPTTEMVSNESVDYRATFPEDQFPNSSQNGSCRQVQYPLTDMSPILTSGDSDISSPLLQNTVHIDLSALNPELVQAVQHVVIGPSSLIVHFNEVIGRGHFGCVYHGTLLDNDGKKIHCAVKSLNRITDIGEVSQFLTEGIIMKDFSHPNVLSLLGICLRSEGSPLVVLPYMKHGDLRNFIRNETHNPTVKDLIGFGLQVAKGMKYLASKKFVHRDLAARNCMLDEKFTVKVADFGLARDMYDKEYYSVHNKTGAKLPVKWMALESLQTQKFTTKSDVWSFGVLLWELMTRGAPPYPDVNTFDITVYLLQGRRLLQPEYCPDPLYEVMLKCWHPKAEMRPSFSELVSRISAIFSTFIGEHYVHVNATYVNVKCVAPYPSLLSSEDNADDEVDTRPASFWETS

| Binder | EC50 |
| --- | --- |
| B1 | 1.91 nM |
| B2 | 0.95 nM |
| B3 | 1.13 nM |
| B4 | 1.51 nM |

Target: T1, human c-MET
Assay: flow cytometry on MKN45 cells (highly express c-MET)
Description: as §1, §2

| Binder | EC50 |
| --- | --- |
| B1 | 2.14 nM |
| B2 | 1.58 nM |
| B3 | 1.36 nM |
| B4 | 1.06 nM |
| B5 | 0.69 nM |
| B6 | 1.77 nM |

Target: T1, human c-MET
Assay: cell-based or functional assay

| Binder | IC50, in vitro cell killing (CCK8) on EBC-1 cells | IC50, in vitro cell killing (CCK8) on MKN45 cells |
| --- | --- | --- |
| B1 | 0.59 nM | 0.33 nM |
| B2 | 1.08 nM | 0.68 nM |
| B3 | 0.66 nM | 0.78 nM |
| B4 | 2.93 nM | 0.57 nM |
| B5 | 0.44 nM | 0.42 nM |

Target: T2, human EGFR (human, UniProt P00533 25-1210)
T2 construct: whole, on cells; also called epidermal growth factor receptor; ErbB-1
Assay: flow cytometry on A431 cells (highly express EGFR)
Description: as §1
as §2, with “The wells of the 96-well plate were then washed twice with 1% BSA, 50 μL of diluted secondary antibody was added to each well, and the 96-well plate was incubated at 4° C. for 30 minutes. Then the cells were washed twice with 1% BSA, and the cells were resuspended in 200 μL of 1% BSA and subjected to flow cytometry detection.” left out

| Binder | EC50 |
| --- | --- |
| B5 | 0.48 nM |
| B6 | 1.34 nM |
